B1: PP1084 protein (3-Cys peroxiredoxin of Pseudomonas putida KT2440), His-tagged, non-irradiated or gamma-irradiated (protein)
chain: MSVLVGKKAPDFTVPAVLGNGEIVDSFNLASAIKGKYGLVFFYPLDFTFVCPSELIALDNRIPDFQARNVEVIGVSIDSHFTHNAWRNTPVNNGGIGQVKYTLAADMTHEICKAYDVESEGGVAFRGAFLIDTNGVVRSQIVNDLPLGRNMDELLRLVDALQFHEEHGEVCPANWKKGDKGMNASPEGVAAYLSENAGKL
B2: PA3529 protein (2-Cys peroxiredoxin of Pseudomonas aeruginosa PAO1), His-tagged, non-irradiated or gamma/UV-irradiated (protein)
chain: MSVLVGKKAPDFNVAAVLGNGEIVESFTLSEAIKGKYGLVFFYPLDFTFVCPSELIALDHRIPEFQARNVEVIGVSIDSHFTHNAWRNTPVDKGGIGAVKYTLAADTKHEIAKAYDVESDGGVAFRGAFLIDKEGVVRSQIVNDLPLGRNMDELLRLVDALQFHEEHGEVCPANWKKGDKGMTASPEGVAKYLAENASKL

Target: malate dehydrogenase (MDH)

Protein	chaperone activity against the non-irradiated group	increase rate of OD650nm of MDH heated at 43 C (holdase chaperone activity)	MDH aggregation at 43 C for 15 minutes, PaPrx:MDH 1:1 (molecular chaperone activity after UV irradiation)
B1	Chaperone activity of Prx protein was three-fold increased by gamma irradiation at 15˜30 kGy, compared with the non-irradiated group	the lowest OD was observed at 30 kGy, indicating that chaperone activity was highest at 30 kGy	
B2	Chaperone activity of Prx protein was three-fold increased by gamma irradiation at 15˜30 kGy, compared with the non-irradiated group	the lowest OD was observed at 30 kGy, indicating that chaperone activity was highest at 30 kGy	as the UV irradiation time increased, the molecular chaperone activity increased regularly

Reference: patent publication US20130210108
